Data as given in patent US9896495 (ZEALAND PHARMA A S, dated 2018).
*1 amine or outer side, *2 acyl side, *3 side chain or, on linkers, in order; H or OH if unused. Side-chain parts run from the residue outwards. [ ]: non-standard residue; d: D form. The star is where a group is joined. C18 diacid = O=C(O)CCCCCCCCCCCCCCCCC(=O)*; γGlu = O=C(O)[C@H](CCC(=O)[*:2])N[*:1]; Ac4c = NC1(C(=O)O)CCC1; Aib = CC(C)(N)C(=O)O

T1: endogenous GLP-1 receptor of a murine insulinoma cell line (murine, UniProt O35659 22-463)
T1 sequence (looked up): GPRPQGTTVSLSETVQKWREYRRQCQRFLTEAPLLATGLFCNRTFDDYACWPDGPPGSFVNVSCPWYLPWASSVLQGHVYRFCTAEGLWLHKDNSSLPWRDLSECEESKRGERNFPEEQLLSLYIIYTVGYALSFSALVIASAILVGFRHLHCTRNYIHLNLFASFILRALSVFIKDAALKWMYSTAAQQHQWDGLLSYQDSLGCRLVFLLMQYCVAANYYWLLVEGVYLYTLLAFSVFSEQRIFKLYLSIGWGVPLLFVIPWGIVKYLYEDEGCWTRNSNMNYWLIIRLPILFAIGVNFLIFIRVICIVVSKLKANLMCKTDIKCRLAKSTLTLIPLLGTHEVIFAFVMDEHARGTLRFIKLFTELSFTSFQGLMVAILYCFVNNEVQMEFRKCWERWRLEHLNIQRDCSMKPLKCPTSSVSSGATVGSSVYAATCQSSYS


Legend:
Assay in all cases: cell-based or functional assay
[1] = molecular target: endogenous glucagon receptor of primary rat hepatocytes (rat, UniProt P30082 27-485)
[2] = molecular target: human glucagon-like peptide 1 receptor (GLP-1R) (human, UniProt P43220 24-463)
[3] = molecular target: human glucagon receptor (Glucagon-R) (human, UniProt P47871 26-477)
[4] = molecular target: T1, endogenous GLP-1 receptor of a murine …

Sequence of endogenous glucagon receptor of primary rat hepatocytes (P30082 27-485): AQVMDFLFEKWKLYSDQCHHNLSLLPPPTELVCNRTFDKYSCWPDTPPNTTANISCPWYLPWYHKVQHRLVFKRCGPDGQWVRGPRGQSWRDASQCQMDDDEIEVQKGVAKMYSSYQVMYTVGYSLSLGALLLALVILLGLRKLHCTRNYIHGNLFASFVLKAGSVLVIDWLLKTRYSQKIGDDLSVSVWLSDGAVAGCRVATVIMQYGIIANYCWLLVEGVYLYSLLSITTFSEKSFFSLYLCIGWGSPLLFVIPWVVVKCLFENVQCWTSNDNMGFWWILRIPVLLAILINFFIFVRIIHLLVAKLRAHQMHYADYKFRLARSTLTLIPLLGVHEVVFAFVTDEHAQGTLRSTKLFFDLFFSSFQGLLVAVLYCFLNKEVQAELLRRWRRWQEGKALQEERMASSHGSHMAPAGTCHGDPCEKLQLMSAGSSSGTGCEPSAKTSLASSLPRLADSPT
Sequence of human glucagon receptor (Glucagon-R) (P47871 26-477): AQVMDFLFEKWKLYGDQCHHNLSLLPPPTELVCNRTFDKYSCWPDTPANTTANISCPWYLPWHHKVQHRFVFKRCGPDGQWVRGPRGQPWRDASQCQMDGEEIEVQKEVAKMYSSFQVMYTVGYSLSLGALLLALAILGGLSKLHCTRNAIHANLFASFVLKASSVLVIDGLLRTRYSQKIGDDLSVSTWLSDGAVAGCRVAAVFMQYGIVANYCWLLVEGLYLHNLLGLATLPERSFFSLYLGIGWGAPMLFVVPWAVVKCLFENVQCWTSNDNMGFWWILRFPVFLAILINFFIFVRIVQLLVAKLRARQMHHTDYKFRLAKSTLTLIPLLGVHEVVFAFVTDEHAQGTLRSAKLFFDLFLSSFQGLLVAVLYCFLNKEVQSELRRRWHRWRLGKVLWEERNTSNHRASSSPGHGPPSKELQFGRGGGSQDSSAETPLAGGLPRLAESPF

Row | Binder | EC50 [nM] (inhibition of glycogen synthesis rate in primary rat hepatocytes) [1] | EC50 hGLP-1R CHO-K1 [nM] (cAMP, AlphaScreen) [2] | EC50 hGCGR CHO-K1 [nM] (cAMP, AlphaScreen) [3] | EC50 [nM] (cAMP in a murine insulinoma cell line) [4]
1 | HXQGTFTSDYSKYLDERRAKDFIEWLEKA (Ac4c at position 2; Lys 28 side chain conjugated to [17-carboxy-heptadecanoyl]-isoGlu-GSGSGG; C-terminal amide) [H-H-Ac4c-QGTFTSDYSKYLDERRAKDFIEWLE-K([17-carboxy-heptadecanoyl]-isoGlu-GSGSGG)-A-NH2] | 0.19 nM | 0.53 nM | 0.16 nM | 0.34 nM
2 | HXQGTFTSDYSKYLDKRAAKDFIEWLESA (Ac4c at position 2; Lys 16 side chain conjugated to [17-carboxy-heptadecanoyl]-isoGlu-GSGSGG; C-terminal amide) [H-H-Ac4c-QGTFTSDYSKYLD-K([17-carboxy-heptadecanoyl]-isoGlu-GSGSGG)-RAAKDFIEWLESA-NH2] | 0.34 nM | 0.97 nM | 0.11 nM | 0.47 nM
3 | H-H[Ac4c]QGTFTSDYSKYLDEK([γGlu-C18 diacid])RAKDFIEWLESA-NH2 (SMILES CC[C@H](C)[C@H](NC(=O)[C@H](Cc1ccccc1)NC(=O)[C@H](CC(=O)O)NC(=O)[C@H](CCCCN)NC(=O)[C@H](C)NC(=O)[C@H](CCCNC(=N)N)NC(=O)[C@H](CCCCNC(=O)CC[C@H](NC(=O)CCCCCCCCCCCCCCCCC(=O)O)C(=O)O)NC(=O)[C@H](CCC(=O)O)NC(=O)[C@H](CC(=O)O)NC(=O)[C@H](CC(C)C)NC(=O)[C@H](Cc1ccc(O)cc1)NC(=O)[C@H](CCCCN)NC(=O)[C@H](CO)NC(=O)[C@H](Cc1ccc(O)cc1)NC(=O)[C@H](CC(=O)O)NC(=O)[C@H](CO)NC(=O)[C@@H](NC(=O)[C@H](Cc1ccccc1)NC(=O)[C@@H](NC(=O)CNC(=O)[C@H](CCC(N)=O)NC(=O)C1(NC(=O)[C@@H](N)Cc2c[nH]cn2)CCC1)[C@@H](C)O)[C@@H](C)O)C(=O)N[C@@H](CCC(=O)O)C(=O)N[C@@H](Cc1c[nH]c2ccccc12)C(=O)N[C@@H](CC(C)C)C(=O)N[C@@H](CCC(=O)O)C(=O)N[C@@H](CO)C(=O)N[C@@H](C)C(N)=O) [H-H-Ac4c-QGTFTSDYSKYLDE-K([17-carboxy-heptadecanoyl]-isoGlu)-RAKDFIEWLESA-NH2] | 0.45 nM | 0.48 nM | 0.07 nM | 0.81 nM
4 | HXQGTFTSDYSKYLEKRAAKDFIEWLESA (Aib at position 2; Lys 16 side chain conjugated to [17-carboxy-heptadecanoyl]-isoGlu-GSGSGG; C-terminal amide) [H-H-Aib-QGTFTSDYSKYLE-K([17-carboxy-heptadecanoyl]-isoGlu-GSGSGG)-RAAKDFIEWLESA-NH2] | 0.8 nM | 1.43 nM | 0.44 nM | 0.54 nM
5 | H-H[Ac4c]QGTFTSDYSKYLDEK([γGlu-C18 diacid])AAKDFIEWLESA-NH2 (SMILES CC[C@H](C)[C@H](NC(=O)[C@H](Cc1ccccc1)NC(=O)[C@H](CC(=O)O)NC(=O)[C@H](CCCCN)NC(=O)[C@H](C)NC(=O)[C@H](C)NC(=O)[C@H](CCCCNC(=O)CC[C@H](NC(=O)CCCCCCCCCCCCCCCCC(=O)O)C(=O)O)NC(=O)[C@H](CCC(=O)O)NC(=O)[C@H](CC(=O)O)NC(=O)[C@H](CC(C)C)NC(=O)[C@H](Cc1ccc(O)cc1)NC(=O)[C@H](CCCCN)NC(=O)[C@H](CO)NC(=O)[C@H](Cc1ccc(O)cc1)NC(=O)[C@H](CC(=O)O)NC(=O)[C@H](CO)NC(=O)[C@@H](NC(=O)[C@H](Cc1ccccc1)NC(=O)[C@@H](NC(=O)CNC(=O)[C@H](CCC(N)=O)NC(=O)C1(NC(=O)[C@@H](N)Cc2c[nH]cn2)CCC1)[C@@H](C)O)[C@@H](C)O)C(=O)N[C@@H](CCC(=O)O)C(=O)N[C@@H](Cc1c[nH]c2ccccc12)C(=O)N[C@@H](CC(C)C)C(=O)N[C@@H](CCC(=O)O)C(=O)N[C@@H](CO)C(=O)N[C@@H](C)C(N)=O) [H-H-Ac4c-QGTFTSDYSKYLDE-K([17-carboxy-heptadecanoyl]-isoGlu)-AAKDFIEWLESA-NH2] | 0.95 nM | 0.56 nM | 0.28 nM | 0.72 nM
6 | H-H[Aib]QGTFTSDYSKYLDK([Peg3-Peg3-γGlu-C18 diacid])RAAKDFIEWLESA-NH2 [H-H-Aib-QGTFTSDYSKYLD-K([17-carboxy-heptadecanoyl]-isoGlu-Peg3-Peg3)-RAAKDFIEWLESA-NH2] | 0.11 nM | 1.76 nM | 0.13 nM | 0.69 nM
7 | HXQGTFTSDYSKYLDKRAAKDFIEWLESA (Aib at position 2; Lys 16 side chain conjugated to [17-carboxy-heptadecanoyl]-isoGlu-GSGSGG; C-terminal amide) [H-H-Aib-QGTFTSDYSKYLD-K([17-carboxy-heptadecanoyl]-isoGlu-GSGSGG)-RAAKDFIEWLESA-NH2] | 0.21 nM | 0.83 nM | 0.18 nM | 0.65 nM
8 | H-H[Aib]QGTFTSDYSKYLEK([Peg3-Peg3-γGlu-C18 diacid])RAAHDFIEWLESA-NH2 [H-H-Aib-QGTFTSDYSKYLE-K([17-carboxy-heptadecanoyl]-isoGlu-Peg3-Peg3)-RAAHDFIEWLESA-NH2] | 0.29 nM | 0.8 nM | 0.31 nM | 0.36 nM
9 | HXQGTFTSDYSKYLDEKAAKDFIEWLESA (Aib at position 2; Lys 17 side chain conjugated to [17-carboxy-heptadecanoyl]-isoGlu; C-terminal amide) [H-H-Aib-QGTFTSDYSKYLDE-K([17-carboxy-heptadecanoyl]-isoGlu)-AAKDFIEWLESA-NH2] | 1.53 nM | 0.41 nM | 1.08 nM | 0.6 nM
10 | HXQGTFTSDYSKYLDERAAKDFIEWLEKA (Ac4c at position 2; Lys 28 side chain conjugated to [17-carboxy-heptadecanoyl]-isoGlu-GSGSGG; C-terminal amide) [H-H-Ac4c-QGTFTSDYSKYLDERAAKDFIEWLE-K([17-carboxy-heptadecanoyl]-isoGlu-GSGSGG)-A-NH2] | 3.63 nM | 0.61 nM | 0.92 nM | 0.25 nM
11 | H-H[Ac4c]HGTFTSDYSKYLDEK([Peg3-Peg3-γGlu-C18 diacid])RAKDFIEWLESA-NH2 [H-H-Ac4c-HGTFTSDYSKYLDE-K([17-carboxy-heptadecanoyl]-isoGlu-Peg3-Peg3)-RAKDFIEWLESA-NH2] | 0.11 nM | 0.97 nM | 0.07 nM | 0.84 nM
12 | H-H[Ac4c]QGTFTSDYSKYLDEK([Peg3-Peg3-γGlu-C18 diacid])RAKDFIEWLESA-NH2 [H-H-Ac4c-QGTFTSDYSKYLDE-K([17-carboxy-heptadecanoyl]-isoGlu-Peg3-Peg3)-RAKDFIEWLESA-NH2] | 1.79 nM | 0.7 nM | 0.45 nM | 0.4 nM
13 | HXQGTFTSDYSKYLDERAAKDFIKWLESA (Aib at position 2; Lys 24 side chain conjugated to [17-carboxy-heptadecanoyl]-isoGlu-GSGSGG; C-terminal amide) [H-H-Aib-QGTFTSDYSKYLDERAAKDFI-K([17-carboxy-heptadecanoyl]-isoGlu-GSGSGG)-WLESA-NH2] | 0.94 nM | 0.7 nM | 1.48 nM | 0.15 nM
14 | HXQGTFTSDYSKYLDERRAKDFIKWLESA (Ac4c at position 2; Lys 24 side chain conjugated to [17-carboxy-heptadecanoyl]-isoGlu-GSGSGG; C-terminal amide) [H-H-Ac4c-QGTFTSDYSKYLDERRAKDFI-K([17-carboxy-heptadecanoyl]-isoGlu-GSGSGG)-WLESA-NH2] | 0.19 nM | 0.6 nM | 0.18 nM | 0.38 nM
15 | HXQGTFTSDYSKYLDSKAAHDFVEWLLSA (Aib at position 2; Lys 17 side chain conjugated to [15-carboxy-pentadecanoyl]-isoGlu; C-terminal amide) [H-H-Aib-QGTFTSDYSKYLDS-K([15-carboxy-pentadecanoyl]-isoGlu)-AAHDFVEWLLSA-NH2] | 0.85 nM | 0.38 nM | 0.21 nM | 0.6 nM
16 | H-H[Ac4c]QGTFTSDYSKYLDERAAKDFIKWLESA-NH2 (not fully specified (residue 24)) [H-H-Ac4c-QGTFTSDYSKYLDERAAKDFI-K([17-carboxy-heptadecanoyl]-isoGlu-GSGSGG)-WLESA-NH2] | 0.43 nM | 0.33 nM | 0.52 nM | 0.37 nM
